Test results: PMC10891134, “Bacteria employ lysine acetylation of transcriptional regulators to adapt gene expression to cellular metabolism” (Nature Communications, 2024)

T1: RutR Δ1-12 (UniProt P0ACU2 13-212, del1-12)
T1 sequence: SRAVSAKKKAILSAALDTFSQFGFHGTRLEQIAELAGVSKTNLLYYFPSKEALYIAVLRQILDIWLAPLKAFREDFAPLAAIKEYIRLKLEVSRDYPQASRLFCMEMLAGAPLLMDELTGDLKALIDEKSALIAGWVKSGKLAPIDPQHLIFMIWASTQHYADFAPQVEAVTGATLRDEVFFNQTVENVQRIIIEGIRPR

T2: RutR K52R (UniProt P0ACU2 1-212, K52R)
T2 sequence: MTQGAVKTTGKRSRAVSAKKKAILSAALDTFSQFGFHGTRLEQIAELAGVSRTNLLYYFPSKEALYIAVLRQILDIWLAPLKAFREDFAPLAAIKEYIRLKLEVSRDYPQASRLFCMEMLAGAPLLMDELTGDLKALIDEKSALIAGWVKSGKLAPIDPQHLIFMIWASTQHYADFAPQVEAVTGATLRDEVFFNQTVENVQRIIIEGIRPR

T3: RutR K52Q (UniProt P0ACU2 1-212, K52Q)
T3 sequence: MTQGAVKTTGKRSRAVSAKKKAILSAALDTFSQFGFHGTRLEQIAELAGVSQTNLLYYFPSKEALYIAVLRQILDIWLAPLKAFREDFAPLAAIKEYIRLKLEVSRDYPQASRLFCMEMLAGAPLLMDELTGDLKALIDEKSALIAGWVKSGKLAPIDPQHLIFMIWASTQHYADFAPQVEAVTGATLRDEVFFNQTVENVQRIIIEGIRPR

T4: RutR K7R/K11R (UniProt P0ACU2 1-212, K7R;K11R)
T4 sequence: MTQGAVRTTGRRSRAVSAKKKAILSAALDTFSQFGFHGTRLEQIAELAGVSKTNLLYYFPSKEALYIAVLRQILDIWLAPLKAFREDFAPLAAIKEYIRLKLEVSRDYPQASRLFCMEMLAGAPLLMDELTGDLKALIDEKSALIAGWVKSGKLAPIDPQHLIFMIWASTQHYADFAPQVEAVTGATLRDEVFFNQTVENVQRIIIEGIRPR

T5: RutR K11Q (UniProt P0ACU2 1-212, K11Q)
T5 sequence: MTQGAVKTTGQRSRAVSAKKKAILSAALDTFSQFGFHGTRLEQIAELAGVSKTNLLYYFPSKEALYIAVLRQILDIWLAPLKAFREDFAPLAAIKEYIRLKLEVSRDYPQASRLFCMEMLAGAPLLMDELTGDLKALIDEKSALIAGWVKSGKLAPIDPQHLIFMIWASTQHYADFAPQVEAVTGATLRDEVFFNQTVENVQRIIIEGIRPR

T6: RutR WT (UniProt P0ACU2 1-212)
T6 sequence: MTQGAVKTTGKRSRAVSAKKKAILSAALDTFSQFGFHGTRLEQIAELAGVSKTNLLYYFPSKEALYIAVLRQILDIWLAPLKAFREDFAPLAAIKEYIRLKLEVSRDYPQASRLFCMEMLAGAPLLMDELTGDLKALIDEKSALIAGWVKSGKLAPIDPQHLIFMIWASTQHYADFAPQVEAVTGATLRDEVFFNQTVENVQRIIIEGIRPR

T7: RutR K7Q/K11Q (UniProt P0ACU2 1-212, K7Q;K11Q)
T7 sequence: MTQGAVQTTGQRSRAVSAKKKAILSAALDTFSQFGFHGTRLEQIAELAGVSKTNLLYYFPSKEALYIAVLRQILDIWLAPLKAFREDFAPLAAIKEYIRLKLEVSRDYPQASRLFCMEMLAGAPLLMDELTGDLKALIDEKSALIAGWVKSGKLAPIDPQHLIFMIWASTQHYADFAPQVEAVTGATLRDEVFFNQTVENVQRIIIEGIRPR

T8: RutR K7Q (UniProt P0ACU2 1-212, K7Q)
T8 sequence: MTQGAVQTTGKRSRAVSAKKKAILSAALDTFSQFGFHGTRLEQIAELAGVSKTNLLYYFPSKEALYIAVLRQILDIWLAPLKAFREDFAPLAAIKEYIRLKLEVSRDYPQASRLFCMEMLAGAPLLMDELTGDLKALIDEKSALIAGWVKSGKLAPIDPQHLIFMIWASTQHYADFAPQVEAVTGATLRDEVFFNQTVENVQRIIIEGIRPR


What was measured:
[1] = molecular target: RutR AcK7/11 K7AcK;K11AcK (Escherichia coli K12?) (UniProt P0ACU2); test: SPR; conditions: ITC: 100 mM potassium phosphate pH 6.4, 150 mM NaCl, 5 mM MgCl2, 2 mM b-ME, 20 or 25 C; SPR: 100 mM potassium phosphate pH 6.4, 300 mM NaCl, 0.05% Tween20 …
[2] = molecular target: RutR AcK7 K7AcK (Escherichia coli K12?) (UniProt P0ACU2); test: SPR; conditions: ITC: 100 mM potassium phosphate pH 6.4, 150 mM NaCl, 5 mM MgCl2, 2 mM b-ME, 20 or 25 C; SPR: 100 mM potassium phosphate pH 6.4, 300 mM NaCl, 0.05% Tween20 …
[3] = molecular target: RutR AcK21 K21AcK (Escherichia coli K12?) (UniProt P0ACU2); test: ITC; conditions: ITC: 100 mM potassium phosphate pH 6.4, 150 mM NaCl, 5 mM MgCl2, 2 mM b-ME, 20 or 25 C; SPR: 100 mM potassium phosphate pH 6.4, 300 mM NaCl, 0.05% Tween20 …
[4] = molecular target: RutR AcK11 K11AcK (Escherichia coli K12?) (UniProt P0ACU2); test: ITC; conditions: ITC: 100 mM potassium phosphate pH 6.4, 150 mM NaCl, 5 mM MgCl2, 2 mM b-ME, 20 or 25 C; SPR: 100 mM potassium phosphate pH 6.4, 300 mM NaCl, 0.05% Tween20 …
[5] = molecular target: RutR AcK7/11 K7AcK;K11AcK (Escherichia coli K12?) (UniProt P0ACU2); test: ITC; conditions: ITC: 100 mM potassium phosphate pH 6.4, 150 mM NaCl, 5 mM MgCl2, 2 mM b-ME, 20 or 25 C; SPR: 100 mM potassium phosphate pH 6.4, 300 mM NaCl, 0.05% Tween20 …
[6] = molecular target: RutR AcK95 K95AcK (Escherichia coli K12?) (UniProt P0ACU2); test: ITC; conditions: ITC: 100 mM potassium phosphate pH 6.4, 150 mM NaCl, 5 mM MgCl2, 2 mM b-ME, 20 or 25 C; SPR: 100 mM potassium phosphate pH 6.4, 300 mM NaCl, 0.05% Tween20 …
[7] = molecular target: RutR AcK150 K150AcK (Escherichia coli K12?) (UniProt P0ACU2); test: ITC; conditions: ITC: 100 mM potassium phosphate pH 6.4, 150 mM NaCl, 5 mM MgCl2, 2 mM b-ME, 20 or 25 C; SPR: 100 mM potassium phosphate pH 6.4, 300 mM NaCl, 0.05% Tween20 …
[8] = molecular target: RutR AcK7 K7AcK (Escherichia coli K12?) (UniProt P0ACU2); test: ITC; conditions: ITC: 100 mM potassium phosphate pH 6.4, 150 mM NaCl, 5 mM MgCl2, 2 mM b-ME, 20 or 25 C; SPR: 100 mM potassium phosphate pH 6.4, 300 mM NaCl, 0.05% Tween20 …
[9] = molecular target: RutR AcK62 K62AcK (Escherichia coli K12?) (UniProt P0ACU2); test: ITC; conditions: ITC: 100 mM potassium phosphate pH 6.4, 150 mM NaCl, 5 mM MgCl2, 2 mM b-ME, 20 or 25 C; SPR: 100 mM potassium phosphate pH 6.4, 300 mM NaCl, 0.05% Tween20 …
[10] = molecular target: T1, RutR Δ1-12; test: EMSA; ITC: 100 mM potassium phosphate pH 6.4, 150 mM NaCl, 5 mM MgCl2, 2 mM b-ME, 20 or 25 C; SPR: 100 mM potassium phosphate pH 6.4, 300 mM NaCl, 0.05% Tween20, 25 C; EMSA: 20 mM Tris-HCl pH 7.5, 100 mM KCl, 2 mM DTT, 10% glycerol, 25 nM DNA, 30 C; conditions: protein: recombinant; tags: His6; chain copies: 2; blunt
[11] = molecular target: T2, RutR K52R; test: ITC; ITC: 100 mM potassium phosphate pH 6.4, 150 mM NaCl, 5 mM MgCl2, 2 mM b-ME, 20 or 25 C; SPR: 100 mM potassium phosphate pH 6.4, 300 mM NaCl, 0.05% Tween20, 25 C; EMSA: 20 mM Tris-HCl pH 7.5, 100 mM KCl, 2 mM DTT, 10% glycerol, 25 nM DNA, 30 C; conditions: protein: recombinant; tags: His6; chain copies: 2; blunt
[12] = molecular target: T3, RutR K52Q; test: as above; conditions: protein: recombinant; tags: His6; chain copies: 2; blunt
[13] = molecular target: T4, RutR K7R/K11R; test: as above; conditions: protein: recombinant; tags: His6; chain copies: 2; blunt
[14] = molecular target: T5, RutR K11Q; test: as above; conditions: protein: recombinant; tags: His6; chain copies: 2; blunt
[15] = molecular target: T6, RutR WT; test: as above; conditions: protein: recombinant; tags: His6; chain copies: 2; blunt
[16] = molecular target: T7, RutR K7Q/K11Q; test: as above; conditions: protein: recombinant; tags: His6; chain copies: 2; blunt
[17] = molecular target: T8, RutR K7Q; test: as above; conditions: protein: recombinant; tags: His6; chain copies: 2; blunt
[18] = molecular target: T6, RutR WT; test: SPR; ITC: 100 mM potassium phosphate pH 6.4, 150 mM NaCl, 5 mM MgCl2, 2 mM b-ME, 20 or 25 C; SPR: 100 mM potassium phosphate pH 6.4, 300 mM NaCl, 0.05% Tween20, 25 C; EMSA: 20 mM Tris-HCl pH 7.5, 100 mM KCl, 2 mM DTT, 10% glycerol, 25 nM DNA, 30 C; conditions: protein: recombinant; tags: His6; chain copies: 2; blunt

Molecule | binding result [10] | Kd [11] [nM] | Kd [12] [nM] | Kd [13] [nM] | Kd [14] [nM] | Kd [15] [nM] | Kd [16] [nM] | Kd [17] [nM] | other results
GTTTTATGTGCAACTGTTTTGACCGTTTAGTCCACTTTTTACCAGATATTTTAG (double strand) [biotin-boxrutA] | – | – | – | – | – | – | – | – | Kd [1]: 76.2 nM; Kd [2]: 9.06 nM
GTTTTAATGTAAATTTTGACCATTTGGTCCACTTTTTTCTGCTCGT (double strand) [boxcarA] | – | – | – | – | – | – | – | – | Kd [3]: 12 nM; Kd [4]: 82 nM; Kd [5]: 300 nM; Kd [6]: 19 nM; Kd [7]: 40 nM; Kd [8]: 73 nM; Kd [9]: 1120 nM
boxrutA (dsDNA) DNA 1: GTTTTATGTGCAACTGTTTTGACCGTTTAGTCCACTTTTTACCAGATATTTTAG DNA 2: CTAAAATATCTGGTAAAAAGTGGACTAAACGGTCAAAACAGTTGCACATAAAAC | binds | 42 ± 30 | 2420 ± 961 | 47 ± 20 | 332 ± 179 | 44 ± 21 | 540 ± 158 | 57 ± 20 | –
boxcarA (dsDNA) DNA 1: GTTTTAATGTAAATTTTGACCATTTGGTCCACTTTTTTCTGCTCGT DNA 2: ACGAGCAGAAAAAAGTGGACCAAATGGTCAAAATTTACATTAAAAC | binds | 61 ± 36 | 1220 ± 1130 | 17 ± 1 | 42 ± 16 | 28 ± 1 | 153 ± 43 | 26 ± 12 | –
biotin-boxrutA (dsDNA) DNA 1: GTTTTATGTGCAACTGTTTTGACCGTTTAGTCCACTTTTTACCAGATATTTTAG DNA 2: CTAAAATATCTGGTAAAAAGTGGACTAAACGGTCAAAACAGTTGCACATAAAAC | – | – | – | – | – | – | – | – | Kd [18]: 4.27 ± 1.19 nM
